In IntAct's records for PubMed 33947832:

B1: ORF3a protein (SARS-CoV-2), P0DTC3 (parent)
chain: MDLFMRIFTIGTVTLKQGEIKDATPSDFVRATATIPIQASLPFGWLIVGVALLAVFQSASKIITLKKRWQLALSKGVHFVCNLLLLFVTVYSHLLLVAAGLEAPFLYLYALVYFLQSINFVRIIMRLWLCWKCRSKNPLLYDANYFLCWHTNCYDYCIPYNSVTSSIVITSGDGTTSPISEHDYQIGGYTEKWESGVKDCVVLHSYFTSDYYQLYSTQLSTDTGVEHVTFFIYNKIVDEPEEHVQIHTIDGSSGVVNPVMEPIYDEPTTTTSVPL
partner: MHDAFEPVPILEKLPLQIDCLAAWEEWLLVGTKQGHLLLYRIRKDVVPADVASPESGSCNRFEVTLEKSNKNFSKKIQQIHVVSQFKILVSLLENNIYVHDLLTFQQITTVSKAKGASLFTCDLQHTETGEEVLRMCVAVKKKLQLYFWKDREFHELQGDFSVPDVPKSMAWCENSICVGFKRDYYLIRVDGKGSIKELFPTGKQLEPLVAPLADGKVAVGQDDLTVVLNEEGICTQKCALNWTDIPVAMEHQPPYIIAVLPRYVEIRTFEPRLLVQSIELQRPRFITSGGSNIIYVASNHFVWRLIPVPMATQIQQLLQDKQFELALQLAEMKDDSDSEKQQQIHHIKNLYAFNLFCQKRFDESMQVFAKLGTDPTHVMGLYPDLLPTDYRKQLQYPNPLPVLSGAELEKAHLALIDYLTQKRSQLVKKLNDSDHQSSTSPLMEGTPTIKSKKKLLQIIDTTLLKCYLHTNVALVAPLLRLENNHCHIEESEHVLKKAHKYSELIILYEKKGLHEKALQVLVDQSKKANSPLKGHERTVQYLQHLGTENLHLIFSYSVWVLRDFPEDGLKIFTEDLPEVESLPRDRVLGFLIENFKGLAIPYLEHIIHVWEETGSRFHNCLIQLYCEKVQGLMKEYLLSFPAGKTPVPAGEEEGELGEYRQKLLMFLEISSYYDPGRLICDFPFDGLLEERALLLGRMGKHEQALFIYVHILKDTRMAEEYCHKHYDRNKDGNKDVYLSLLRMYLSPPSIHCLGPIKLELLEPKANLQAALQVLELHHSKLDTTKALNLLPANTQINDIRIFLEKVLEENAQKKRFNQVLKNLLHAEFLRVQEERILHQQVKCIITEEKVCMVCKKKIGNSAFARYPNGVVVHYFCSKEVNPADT

Variants of: B1
Conditions: with vps39_human VPS39, Q96JC1
In the case of Y160A, the “effect of a mutation on the interaction” value is reported as “disrupting interaction strength”.
